According to PMC8115288:

Tests used:
GST-SAP18 = GST-SAP18 (UniProt O00422); experiment: pull-down; GST-INI1, GST-SAP18, GST-LEDGF or GST-Gemin2 as bait, His6-IN(WT) or His6-IN(W235E) as prey; bound protein quantified as fraction bound after normalising to the loading control
GST-Gemin2 = GST-Gemin2 (UniProt O14893); experiment: GST-pull down, quantitation of bound protein; settings: parent: est. 1.0; read off a plot
GST-LEDGF = GST-LEDGF (UniProt O75475); experiment: GST-pull down, quantitation of bound protein; settings: parent: est. 1.0; read off a plot
GST-LEDGF, sequence (O75475 whole entry): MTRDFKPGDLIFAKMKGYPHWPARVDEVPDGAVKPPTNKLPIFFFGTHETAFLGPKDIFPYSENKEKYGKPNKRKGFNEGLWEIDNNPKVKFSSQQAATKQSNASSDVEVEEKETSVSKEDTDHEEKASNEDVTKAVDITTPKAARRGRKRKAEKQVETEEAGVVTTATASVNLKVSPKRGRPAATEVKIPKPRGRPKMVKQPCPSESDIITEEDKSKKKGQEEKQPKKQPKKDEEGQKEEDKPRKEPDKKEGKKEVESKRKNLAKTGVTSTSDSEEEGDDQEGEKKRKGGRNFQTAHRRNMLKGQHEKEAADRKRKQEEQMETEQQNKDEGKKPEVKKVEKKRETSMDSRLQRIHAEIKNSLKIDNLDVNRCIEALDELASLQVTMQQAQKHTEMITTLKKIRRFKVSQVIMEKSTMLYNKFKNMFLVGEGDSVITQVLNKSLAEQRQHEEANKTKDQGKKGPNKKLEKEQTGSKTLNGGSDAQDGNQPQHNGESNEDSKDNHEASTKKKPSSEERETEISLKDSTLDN

GST-Gemin2, sequence (O14893 whole entry): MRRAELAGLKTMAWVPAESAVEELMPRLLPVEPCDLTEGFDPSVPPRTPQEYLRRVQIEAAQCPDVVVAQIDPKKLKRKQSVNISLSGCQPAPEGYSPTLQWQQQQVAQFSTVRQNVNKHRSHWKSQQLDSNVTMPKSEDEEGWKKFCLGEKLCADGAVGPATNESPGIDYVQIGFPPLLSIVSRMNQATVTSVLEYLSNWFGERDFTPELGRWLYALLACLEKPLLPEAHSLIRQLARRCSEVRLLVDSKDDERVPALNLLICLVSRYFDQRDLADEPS
GST-SAP18, sequence (O00422 whole entry): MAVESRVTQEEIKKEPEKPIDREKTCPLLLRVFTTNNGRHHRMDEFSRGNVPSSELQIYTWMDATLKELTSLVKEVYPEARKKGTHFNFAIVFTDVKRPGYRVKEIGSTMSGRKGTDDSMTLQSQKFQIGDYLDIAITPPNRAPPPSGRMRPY

Row | Substance | % binding (GST-SAP18) [%] | ratio to parent (GST-Gemin2) | ratio to parent (GST-LEDGF)
1 | His6-IN(W235E) (enzyme) | 20 |  | 
2 | His6-IN(WT) W235E |  | 0.8 | 0.82
